Reference: patent US20070248604A1 (Genentech, published 2007)

What was measured:
hu FGF-19-His [1] = target: T1, hu FGF-19-His (human, UniProt O95750 25-216, limits assumed); test: SPR, BIAcore-3000, antibody coupled to CM5 chip (~500 RU), FGF19-His injected 0.7-500 nM, 25 C, 1:1 Langmuir model
T1 construct: Analyte in SPR; Construct limits and tag not described; not shown: His tag
Method: Briefly, carboxymethylated dextran biosensor chips (CM5, BIAcore Inc.) were activated with N-ethyl-N′-(3-dimethylaminopropyl)-carbodiimide hydrochloride (EDC) and N-hydroxysuccinimide (NHS) according to the supplier's instructions. […] Next, 1M ethanolamine was injected to block unreacted groups. […] Association rates (kₒₙ) and dissociation rates (koff) were calculated using a simple one-to-one Langmuir binding model (BIAcore Evaluation Software version 3.2).

FGF19 protein [2] = target: T2, FGF19 protein (human, UniProt O95750 25-216, limits assumed); test: solid phase receptor binding assay, blocking: FGF19 binding to captured FGFR4-Fc with antibody titrated
T2 construct: 125I-labelled for the Scatchard analysis. 'Human' is stated for hu FGF-19-His and for the anti-human FGF19 antibodies, not in these assay descriptions; also called Fibroblast growth factor 19; [125I]FGF19
Method: (§1) Maxisorb 96 well plates were coated overnight at 4° C. with 50 μl of 2 μg/ml anti-human immunoglobulin Fcγ fragment specific antibody (Jackson Immunoresearch) and used to capture 1 μg/ml FGFR-Fc chimeric proteins (R & D Systems).

hu FGF-19-His [3] = target: T1, hu FGF-19-His; test: solid phase antibody binding assay: FGF19-His captured on nickel coated plates, HRP anti-mouse IgG
Excerpt: (§2) Non-specific binding sites of HisGrab Nickel coated plates (Pierce) were saturated with PBS/3% BSA. […] The bound antibodies were detected using a HRP conjugated anti-mouse IgG (Jackson Immunoresearch) and the TMB peroxydase colorigenic substrate (KPL).

hu FGF-19-His [4] = target: T1, hu FGF-19-His; test: ELISA, FGF19-His captured on nickel plates, HRP anti-mouse IgG detection; ELISA binding EC50
Excerpt: as §2

FGF19 protein [5] = target: T2, FGF19 protein; test: solid phase receptor binding assay: FGF19 binding to captured FGFR4-Fc with antibody present; solid phase receptor binding assay, blocking of FGF19 binding to FGFR4
Method: as §1

T1 sequence (O95750 25-216 limits assumed): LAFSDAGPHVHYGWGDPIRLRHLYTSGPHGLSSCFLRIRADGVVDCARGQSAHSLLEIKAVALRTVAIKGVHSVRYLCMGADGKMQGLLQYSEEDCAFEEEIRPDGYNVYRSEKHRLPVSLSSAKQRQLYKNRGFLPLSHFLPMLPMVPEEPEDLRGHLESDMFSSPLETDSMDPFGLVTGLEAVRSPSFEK
T2 sequence (O95750 25-216 limits assumed): as above

B1: mouse anti-human FGF19 monoclonal antibody 1A6 (antibody, V domains shown)
VH: QVQLKQSGPGLVQPSQSLSITCTVSGFSLTTYGVHWVRQSPGKGLEWLGVIWPGGGTDYNAAFISRLSITKDNSKSQVFFKMNSLLANDTAIYFCVRKEYANLYAMDYWGQGTLLTVSA
VL: DIKMTQSPSSMYASLGERVTIPCKASQDINSFLSWFQQKPGKSPKTLIYRANRLVDGVPSRFSGSGSGQDYSLTISSLEYEDMGIYYCLQYDEFPLTFGAGTKVEIKR
notes: Mouse hybridoma monoclonal antibody, purified from ascites on protein A-agarose; also called anti-FGF19 mab 1A6; anti-FGF19 Mab 1A6
Kd (hu FGF-19-His [1]): < 0.009 nM
IC50 (read off the curve) (FGF19 protein [2]): ~0.5 µg/mL
EC50 (read off the curve) (hu FGF-19-His [3]): ~0.03 µg/mL
EC50 (hu FGF-19-His [4]): 0.04 nM
IC50 (FGF19 protein [5]): 3 nM
